Source: the supplement of paper PMC7125110
± gives the standard error. This sample holds only a part of the variants without activity.

B1: glmS ribozyme (parent)
chain: AUAAAAGCGCCAGAACUACAGAAAUGUAGUUGACGAGGAGGAGGUUUAUCGAAUUUUCGGCGGAUGCCUCCAAA

Legend:
Conditions in all cases: with glucosamine-6-phosphate
[1] = variants of: B1; assay: self-cleavage kobs at 640 uM GlcN6P; higher = faster cleavage; RNA array
Method in brief: (§1)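 kobs was derived by fitting per-tile medians to one- or two-exponential decays after normalising signals to baseline and to non-cleaving reference variants. Those signals came from barcoded ribozyme variants transcribed in situ by E. coli RNA polymerase on sequenced MiSeq chips, followed through a hybridised Cy3 probe at 37 °C and imaged over ~14 h. Glucosamine-6-phosphate (40 μM to 10 mM) in HEPES/KCl/Mg(OAc)2 buffer was flowed in. Weighted Michaelis–Menten fits across concentrations then gave kcat and KM.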

[2] = variants of: B1; assay: self-cleavage kobs at 2500 uM GlcN6P; higher = faster cleavage; RNA array
Method in brief: as §1

[3] = variants of: B1; assay: self-cleavage kobs at 10000 uM GlcN6P; higher = faster cleavage; RNA array
Method in brief: as §1

Row | Variant | self-cleavage kobs at 640 uM GlcN6P [1] [s⁻¹] | self-cleavage kobs at 2500 uM GlcN6P [2] [s⁻¹] | self-cleavage kobs at 10000 uM GlcN6P [3] [s⁻¹]
1 | G40A A42G G51U U57A U69C | < 1e-05 | – | –
2 | G7U A36C A42C G66C | < 1e-05 | – | –
3 | G37A A42G C71G | 8.96e-05 ± 2.4e-05 | 5.5e-05 ± 1.6e-05 | 8.16e-05 ± 2.3e-05
4 | G7C A12G A36C | < 1e-05 | – | –
5 | G9C U31G U57A | < 1e-05 | – | –
6 | G37U C61G | < 1e-05 | – | < 1e-05
7 | G7C C61A G63C | < 1e-05 | – | –
8 | A33U G44C G51A U56A | < 1e-05 | – | –
9 | A6C C8U G38C G51C | < 1e-05 | < 1e-05 | –
10 | C10A U46C U47A G59A | < 1e-05 | < 1e-05 | –
11 | A15G U49A C58A U69A C70U | 0.00014 ± 3.9e-05 | – | –
12 | C34A G40C C61U | < 1e-05 | – | –
13 | C34A G44U C50A | < 1e-05 | – | –
14 | A15U U30A C68G | 9.94e-05 ± 2.9e-05 | – | –
15 | C16U G35C G37A | < 1e-05 | – | –
16 | U31G C58G A64U | < 1e-05 | – | –
17 | A6U G41A C58A | < 1e-05 | – | –
18 | A12C A33U A52G U54G | < 1e-05 | – | –
19 | G32U A64C C71A | < 1e-05 | < 1e-05 | –
20 | A14G A36U C68A | < 1e-05 | 0.00425 ± 0.0019 | –
21 | C8G A15G C16U U45G U49A | < 1e-05 | < 1e-05 | –
22 | C8G C67U C70G | < 1e-05 | – | –
23 | A36C A42U A52G C70U | < 1e-05 | – | –
24 | A6C C34A G41C C68A | < 1e-05 | < 1e-05 | –

Row | Variant | self-cleavage kobs at 640 uM GlcN6P [1] [s⁻¹] | self-cleavage kobs at 2500 uM GlcN6P [2] [s⁻¹] | self-cleavage kobs at 10000 uM GlcN6P [3] [s⁻¹]
25 | A14G G21U U31G G38U U57C | < 1e-05 | < 1e-05 | –
26 | C8A U31C G32A | < 1e-05 | – | –
27 | G7U A15U U47G | < 1e-05 | – | –
28 | A15U G40U U55A U56A | 5.38e-05 ± 1.6e-05 | – | –
29 | G7A C10U C67G | 8.24e-05 ± 3.5e-05 | – | –
30 | C11U C50U G60C | < 1e-05 | – | –
31 | G7A A15U A53G | < 1e-05 | – | –
32 | A52C G62A G63C | < 1e-05 | – | –
33 | G37A A64G C71U | 3.85e-05 ± 1.7e-05 | – | –
34 | A36C U49G G63A | < 1e-05 | < 1e-05 | –
35 | G29A G44U U54A U57A C61U C68A | < 1e-05 | < 1e-05 | –
36 | C34G G41C C71U | < 1e-05 | – | –
37 | A6C C34G C61U | < 1e-05 | < 1e-05 | –
38 | A14U A36G U47A | < 1e-05 | < 1e-05 | –
39 | G37U A64U | < 1e-05 | < 1e-05 | –
40 | C8U C16A G62U | < 1e-05 | < 1e-05 | –
41 | G13C A33C | < 1e-05 | < 1e-05 | –
42 | G7A U56C C68U | < 1e-05 | – | < 1e-05
43 | G7U G43U C67G | < 1e-05 | – | –
44 | A6C G35U C71A | < 1e-05 | < 1e-05 | –
45 | G13C C34G G35C A52C | < 1e-05 | < 1e-05 | –
46 | G7U G9A C58A C61A C67U | < 1e-05 | < 1e-05 | –
47 | G32C U45G G60A C68G | < 1e-05 | < 1e-05 | –
48 | U46A U56C C68A | < 1e-05 | < 1e-05 | –

Row | Variant | self-cleavage kobs at 640 uM GlcN6P [1] [s⁻¹] | self-cleavage kobs at 2500 uM GlcN6P [2] [s⁻¹] | self-cleavage kobs at 10000 uM GlcN6P [3] [s⁻¹]
49 | G35C A36U A39G | < 1e-05 | – | –
50 | G32A U57G U69G | 0.000252 ± 0.00011 | – | –
51 | G29U A33C C50U U57A C61U | < 1e-05 | – | –
52 | A12G A36C U45C G60U | < 1e-05 | – | –
53 | C11U G35C U46A U69G | < 1e-05 | < 1e-05 | –
54 | U31C G37A G44U A48U C50A U65G | < 1e-05 | – | –
55 | U49C A52G U65C | < 1e-05 | – | –
56 | C11A C67U C71G | 0.000295 ± 9e-05 | 0.00108 ± 0.00018 | 4.96e-05 ± 1.3e-05
57 | U31A A42U U57A A64G C71A | < 1e-05 | – | –
58 | G29C A33C C34G G38C A52G | < 1e-05 | – | –
59 | A15G A39C A53U | 0.000793 ± 0.00012 | 0.00236 ± 0.00069 | –
60 | C10G A15C A36U | < 1e-05 | – | –
61 | U47G G51U | < 1e-05 | – | –
62 | C16A G62U C71G | < 1e-05 | < 1e-05 | –
63 | C8A A14G G29A A36U | < 1e-05 | < 1e-05 | –
64 | G44C U47C A53G | < 1e-05 | – | –
65 | C8U G35C C68U | < 1e-05 | – | –
66 | U45C U46G C67G | 9.48e-05 ± 2.9e-05 | – | –
67 | C8U A33U U46G A53G U55A | < 1e-05 | < 1e-05 | –
68 | A12U U31C C67U | 0.000286 ± 9.1e-05 | – | –
69 | C34U G51C U54A | < 1e-05 | < 1e-05 | –
70 | G32C A33U C68U C71G | < 1e-05 | < 1e-05 | –
71 | C10U A52C C58G | < 1e-05 | < 1e-05 | –
